Experimental data as given in publication PMC2814163 (2010).

T1: Glu-plasminogen (Homo sapiens, UniProt P00747)
T1 chain: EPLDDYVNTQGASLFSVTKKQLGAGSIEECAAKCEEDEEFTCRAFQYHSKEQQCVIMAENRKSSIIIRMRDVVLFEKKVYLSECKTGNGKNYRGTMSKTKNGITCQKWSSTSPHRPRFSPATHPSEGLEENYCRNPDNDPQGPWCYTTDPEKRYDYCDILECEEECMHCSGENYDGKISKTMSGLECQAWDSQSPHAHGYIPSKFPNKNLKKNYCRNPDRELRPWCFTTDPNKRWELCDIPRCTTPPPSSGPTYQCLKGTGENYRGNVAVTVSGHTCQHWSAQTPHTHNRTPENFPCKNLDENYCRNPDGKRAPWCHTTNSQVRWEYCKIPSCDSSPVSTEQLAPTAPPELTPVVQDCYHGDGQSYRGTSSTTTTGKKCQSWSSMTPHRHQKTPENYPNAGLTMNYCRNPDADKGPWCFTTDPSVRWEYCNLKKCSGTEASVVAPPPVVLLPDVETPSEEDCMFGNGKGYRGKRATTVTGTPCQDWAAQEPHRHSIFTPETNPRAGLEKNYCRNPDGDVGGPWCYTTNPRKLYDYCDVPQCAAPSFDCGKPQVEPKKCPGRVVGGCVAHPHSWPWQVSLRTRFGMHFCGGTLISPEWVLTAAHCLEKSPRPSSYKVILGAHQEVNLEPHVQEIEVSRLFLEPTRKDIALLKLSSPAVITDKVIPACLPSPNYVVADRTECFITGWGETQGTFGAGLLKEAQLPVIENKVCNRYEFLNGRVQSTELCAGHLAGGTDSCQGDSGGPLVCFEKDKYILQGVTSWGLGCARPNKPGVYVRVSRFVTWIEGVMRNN


Biological target: T1, Glu-plasminogen
Test: SPR

Kd [nM]	Binder
5	CI-MPR Dom1-2 (protein) AAGTQGAEFPELCSYTWEAVDTKNNMLYKINICGNMGVAQCGPSSAVCMHDLKTDSFHSVGDSLLKTASRSLLEFNTTVNCKQQNHKIQSSITFLCGKTLGTPEFVTATDCVHYFEWRTTAACKKNIFKANKEVPCYAFDRELKKHDLNPLIKTSGAYLVDDSDPDTSLFINVCRDIEVLRASSPQVRVCPTGAAACLVRGDRAFDVGRPQEGLKLVSNDRLVLSYVKEGAGQPDFCDGHSPAVTITFVCPSERREGTIPKLTAKSNCRFEIEWVTEYACHR
3	CI-MPR Dom1-3 (protein) AAGTQGAEFPELCSYTWEAVDTKNNMLYKINICGNMGVAQCGPSSAVCMHDLKTDSFHSVGDSLLKTASRSLLEFNTTVNCKQQNHKIQSSITFLCGKTLGTPEFVTATDCVHYFEWRTTAACKKNIFKANKEVPCYAFDRELKKHDLNPLIKTSGAYLVDDSDPDTSLFINVCRDIEVLRASSPQVRVCPTGAAACLVRGDRAFDVGRPQEGLKLVSNDRLVLSYVKEGAGQPDFCDGHSPAVTITFVCPSERREGTIPKLTAKSNCRFEIEWVTEYACHRDYLESRSCSLSSAQHDVAVDLQPLSRVEASDSLFYTSEADEYTYYLSICGGSQAPICNKKDAAVCQVKKADSTQVKVAGRPQNLTLRYSDGDLTLIYFGGEECSSGFQRMSVINFECNQTAGNNGRGAPVFTGEVDCTYFFTWDTKYACVH
